# Measured values: article PMC11053944, “FRET Assays for the Identification of C. albicans HSP90-Sba1 and Human HSP90α-p23 Binding Inhibitors” (Pharmaceuticals, 2024)
# “And” between values parts separate entries of the source, which are not always exact repeats. Identical values can stand only once.
# Legend:
# [1] = target: the molecule itself; assay: cross-linking; glutaraldehyde cross-linking and SDS-PAGE (Coomassie): 10 µM HSP90 with equimolar Sba1 or mScarlet-I, reaction buffer, 15 min 30 °C, 5 mM ATP or 2 mM AMP-PNP; cross-linking 2 min at room temperature
# [2] = target: T1, C. albicans HSP90E36A-mNeonGreen (C. albicans, UniProt P46598 1-707, E36A); assay: FRET or BRET; Kd determination, C. albicans: 200 nM HSP90E36A-mNeonGreen, Sba1-mScarlet-I 0-3000 nM (lowest non-zero 10 nM), reaction buffer with 5 mM ATP, 30 °C (text; the legend of Figure 2 says 37 °C), measured after 180 min; mNeonGreen control subtracted; nonlinear regression; conditions: both partners purified
# T1 construct: HSP90 of C. albicans, UniProtKB P46598, ATP-hydrolysis-defective mutant E36A; As m1 with E36A; GGGGS linker before mNeonGreen; also called His6-HSP90E36A-mNeonGreen; source: E. coli BL21(DE3), purified (Ni-NTA, gel filtration); not shown: mNeonGreen, C-terminal, kept
# [3] = target: T2, C. albicans HSP90-mNeonGreen (C. albicans, UniProt P46598 1-707); assay: FRET or BRET; competition, C. albicans: 1 µM HSP90-mNeonGreen and 1 µM Sba1-mScarlet-I with unlabeled Sba1 0-25,000 nM (lowest non-zero 12 nM), reaction buffer with 5 mM ATP; relative IC50 (four parameters), Ki by One Site - Fit Ki; conditions: both partners purified
# T2 construct: HSP90 of C. albicans, UniProtKB P46598; pET-11d: N-terminal His6, FXa site, XhoI site, protein, KpnI site; mNeonGreen joined to the C-terminus of HSP90 by a flexible linker GGGGS; No cleavage of the His6 tag is told; also called His6-HSP90-mNeonGreen; source: E. coli BL21(DE3), purified (Ni-NTA, gel filtration); not shown: mNeonGreen, C-terminal, kept
# [4] = target: T3, human HSP90α-mNeonGreen (human, UniProt P07900 1-732); assay: FRET or BRET; competition, human: 1 µM HSP90α-mNeonGreen and 1 µM p23-mScarlet-I with unlabeled p23 0-50,000 nM (lowest non-zero 23 nM), reaction buffer with 5 mM ATP; relative IC50 (four parameters), Ki by One Site - Fit Ki; conditions: both partners purified
# T3 construct: human HSP90α, UniProt P07900; DNA from a plasmid of a previous work of the lab; Cloned by restriction-ligation on the basis of the C. albicans FRET plasmids (His6, FXa site, protein, mNeonGreen at the C-terminus); also called His6-HSP90α-mNeonGreen; source: E. coli Rosetta2(DE3) pLysS, purified (Ni-NTA, gel filtration); not shown: mNeonGreen, C-terminal, kept
# [5] = target: T4, human HSP90αE47A-mNeonGreen (human, UniProt P07900 1-732, E47A); assay: FRET or BRET; Kd determination, human: 200 nM HSP90αE47A-mNeonGreen, p23-mScarlet-I 0-3000 nM (lowest non-zero 10 nM), reaction buffer with 5 mM ATP, 37 °C, measured after 180 min; mNeonGreen control subtracted; nonlinear regression; conditions: both partners purified
# T4 construct: human HSP90α, UniProt P07900, ATP-hydrolysis-defective mutant E47A; As m3 with E47A; also called His6-HSP90αE47A-mNeonGreen; source: E. coli Rosetta2(DE3) pLysS, purified (Ni-NTA, gel filtration); not shown: mNeonGreen, C-terminal, kept
binder,measurement,setting,value
"C. albicans HSP90 (without fluorescent protein) (natural protein, HSP90 of C. albicans, UniProtKB P46598; Printed mass of the monomer 82.5 kDa, dimer 165 kDa; N-terminal His6 followed by an FXa site; also called His6-HSP90; source: E. coli BL21(DE3), purified (Ni-NTA, gel filtration)) not shown",stoichiometry N,[1],2
"C. albicans Sba1-mScarlet-I (natural protein, UniProt A0A1D8PQ94 1-221, looked up, Sba1 of C. albicans, UniProtKB A0A1D8PQ94; mScarlet-I fused to the 3' end of Sba1, analogously to HSP90-mNeonGreen (there with a GGGGS linker); N-terminal His6 followed by an FXa site; also called His6-Sba1-mScarlet-I; source: E. coli BL21(DE3), purified (Ni-NTA, gel filtration); not shown: mScarlet-I, C-terminal, kept) MSSTTTQTPTVLWAQRSSEDDAAKNIIYLTIQISDPIDLKIDLKSDHLIIDSKSNDSVYSSIDYHLQIDFFKEIDPDQSKINTENGSHIFMILRKKDQQEEYWPRLTKEKLKYHYIKTDFDKWVDEDEQDEVKDDPNDFGGPGGPGGAMDFSQMLSGMGGLGGAGGSGGPGGVDLSALASQLGQAGGAGGAAGLDGEEGEEGEAEAKEAQEESNTTATEKE",Kd,[2],100 nM
"C. albicans Sba1 (unlabeled) (natural protein, UniProt A0A1D8PQ94 1-221, looked up, Sba1 of C. albicans, UniProtKB A0A1D8PQ94; N-terminal His6 followed by an FXa site; also called His6-Sba1; unlabeled Sba1; source: E. coli BL21(DE3), purified (Ni-NTA, gel filtration)) MSSTTTQTPTVLWAQRSSEDDAAKNIIYLTIQISDPIDLKIDLKSDHLIIDSKSNDSVYSSIDYHLQIDFFKEIDPDQSKINTENGSHIFMILRKKDQQEEYWPRLTKEKLKYHYIKTDFDKWVDEDEQDEVKDDPNDFGGPGGPGGAMDFSQMLSGMGGLGGAGGSGGPGGVDLSALASQLGQAGGAGGAAGLDGEEGEEGEAEAKEAQEESNTTATEKE",IC50,[3],1950 nM
same,Ki,[3],100 nM
"human p23 (unlabeled) (natural protein, UniProt Q15185 1-160, looked up, human p23, UniProt Q15185; N-terminal His6 followed by an FXa site; also called His6-p23; unlabeled p23; source: E. coli Rosetta2(DE3) pLysS, purified (Ni-NTA, gel filtration)) MQPASAKWYDRRDYVFIEFCVEDSKDVNVNFEKSKLTFSCLGGSDNFKHLNEIDLFHCIDPNDSKHKRTDRSILCCLRKGESGQSWPRLTKERAKLNWLSVDFNNWKDWEDDSDEDMSNFDRFSEMMNNMGGDEDVDLPEVDGADDDSQDSDDEKMPDLE",IC50,[4],1420 nM
same,Ki,[4],100 nM
"human p23-mScarlet-I (natural protein, UniProt Q15185 1-160, looked up, human p23, UniProt Q15185; Cloned by restriction-ligation on the basis of the C. albicans FRET plasmids (His6, FXa site, protein, mScarlet-I at the C-terminus); also called His6-p23-mScarlet-I; source: E. coli Rosetta2(DE3) pLysS, purified (Ni-NTA, gel filtration); not shown: mScarlet-I, C-terminal, kept) MQPASAKWYDRRDYVFIEFCVEDSKDVNVNFEKSKLTFSCLGGSDNFKHLNEIDLFHCIDPNDSKHKRTDRSILCCLRKGESGQSWPRLTKERAKLNWLSVDFNNWKDWEDDSDEDMSNFDRFSEMMNNMGGDEDVDLPEVDGADDDSQDSDDEKMPDLE",Kd,[5],210 nM and 220 nM
